Laboratory results as given in US10155792B2, “Albumin binding polypeptide” (priority 2012, dated 2018).
Read-outs that look alike come from different tables or passages of the source. Where no end group is shown, it is not given here.

Columns and labels:
clostripain [1] = biological target: T1, clostripain (Hathewaya histolytica, UniProt P09870); assay: Clostripain cleavage, SDS-PAGE analysis; assay type: in vitro ADME, Clostridium histolyticum; details: 5 U clostripain/mg
T1 construct: is a two-chain proteinase that can be isolated from Clostridium histolyticum; purchased Worthington LS001641
T1 sequence (P09870 191-526): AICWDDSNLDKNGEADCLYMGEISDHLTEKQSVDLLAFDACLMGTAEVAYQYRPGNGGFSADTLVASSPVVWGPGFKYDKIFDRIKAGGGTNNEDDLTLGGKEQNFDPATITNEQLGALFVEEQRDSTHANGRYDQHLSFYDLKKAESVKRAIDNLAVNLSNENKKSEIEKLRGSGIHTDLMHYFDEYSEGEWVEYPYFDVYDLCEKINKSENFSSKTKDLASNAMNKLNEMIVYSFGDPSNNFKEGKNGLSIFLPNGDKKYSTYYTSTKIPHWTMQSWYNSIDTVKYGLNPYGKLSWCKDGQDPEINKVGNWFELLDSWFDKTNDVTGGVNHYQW
T1 sequence (P09870 51-181): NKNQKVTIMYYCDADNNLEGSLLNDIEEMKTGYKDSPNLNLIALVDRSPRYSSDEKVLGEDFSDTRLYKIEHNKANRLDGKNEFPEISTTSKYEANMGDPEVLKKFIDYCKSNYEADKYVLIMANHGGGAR
Experimental: (§1) Enzymatic digestion of PEP07843 and the three new variants was performed using clostripain from Worthington (No. LS001641) in 25 mM NaPi buffer pH 7.6, 150 mM NaCl, 1 mM CaAc, 2.5 mM DTT. Clostripain was dissolved freshly before initiation of the experiment.
(§2) In the following experiment, the clostripain amount was increased to 5 U/mg ABD variant, and the samples were incubated for 0, 1, 2, 4, 6, 8 and 22 h at 25° C. in a thermomixer with mild shaking at 600 rpm.
(§3) Reactions were stopped by addition of 4×SDS sample buffer followed by incubation for 15 min at 70° C. (for SDS PAGE analysis) or by addition of trifluoroacetic acid (TFA) to a final concentration of 0.3%, which lowers the pH to approximately 2, and freezing at −80° C. (for LC/MS analysis).
(§4) Controls were reactions without clostripain and omitting DTT which […] clostripain activity.
(§5) Analysis of samples incubated with clostripain for up to 22 h was performed by SDS-PAGE using NuPAGE 4-12% gels from Invitrogen (see FIG. 3). In FIG. 3, lane S indicates sharp molecular weight marker standard (molecular weights 3.5, 10, 15, 20, 30, 40, 50, 60, 80, 110 and 160 kDa), lane B indicates a blank sample with clostripain but no ABD variant, and lanes 0-22 indicate ABD variant samples taken at the indicated incubation times in hours.

clostripain [2] = system: T2, clostripain; assay: Clostripain cleavage, SDS-PAGE analysis; assay type: in vitro ADME, Clostridium histolyticum; details: Clostridium histolyticum, clostripain (isolated protease), pH 7.6, 5 U clostripain/mg, 25° C.; for metabolised at 22 h: read-out: cleaved after 22 h
T2 construct: is a two-chain proteinase that can be isolated from Clostridium histolyticum; purchased Worthington LS001641
Experimental: as §1, §2, §3, §4, §5

clostripain [3] = biological target: T1, clostripain; assay: Clostripain cleavage, LC/MS analysis; assay type: in vitro ADME, Clostridium histolyticum
Experimental: as §1
(§6) In the first experiment, 0.2 U clostripain/mg ABD variant was incubated for up to 20 h at 25° C., but only a low level of cleavage was detected by SDS-PAGE and LC/MS analysis.
as §2, §3
(§7) LC/MS analyses were performed using an Agilent 1100 LC/MSD system, equipped with API-ESI and a single quadruple mass analyzer. 10 μl of each cleavage mixture was injected on a Zorbax 300SB-C8 Narrow-Bore column (2.1×150 mm, 3.5 μm, Agilent Technologies) at a flow-rate of 0.5 ml/min. Elution was performed using a linear gradient of 10-70% solution B for 15 min at 0.5 ml/min. The separation was performed at 30° C. The ion signal and the absorbance at 280 and 220 nm were monitored.
(§8) FIGS. 4 and 5 show the LC/MS analysis of ABD variant samples incubated for up to 20 h with 0.2 U and up to 22 h with 5 U respectively of clostripain per mg ABD variant. The main peak was integrated, and the area transformed to % of remaining intact ABD variant at t=0.
(§9) The main peak was integrated and the area transformed to % of remaining intact ABD at t=0. The LC/MS analysis described above was used for analysis.

clostripain [4] = system: T2, clostripain; assay: Clostripain cleavage, LC/MS analysis; assay type: in vitro ADME, Clostridium histolyticum; details: Clostridium histolyticum, clostripain (isolated protease), read-out: remaining % ABD variant; for remaining at 0.25 h: 15 min; for remaining at 0.5 h: 30 min; for remaining at 20 h: 1200 min
Experimental: as §1, §6, §2, §3, §7, §8, §9

[5] = biological target: T3, cynomolgus serum albumin (CSA) (Macaca fascicularis, UniProt A2V9Z4); assay: Biacore analysis of binding to CSA; details: CSA immobilized, Biacore2000; relative KD only
T3 construct: CSA (purified in-house from cynomolgus serum); from tissue; host or cells: cynomolgus serum
T3 sequence (A2V9Z4 25-608): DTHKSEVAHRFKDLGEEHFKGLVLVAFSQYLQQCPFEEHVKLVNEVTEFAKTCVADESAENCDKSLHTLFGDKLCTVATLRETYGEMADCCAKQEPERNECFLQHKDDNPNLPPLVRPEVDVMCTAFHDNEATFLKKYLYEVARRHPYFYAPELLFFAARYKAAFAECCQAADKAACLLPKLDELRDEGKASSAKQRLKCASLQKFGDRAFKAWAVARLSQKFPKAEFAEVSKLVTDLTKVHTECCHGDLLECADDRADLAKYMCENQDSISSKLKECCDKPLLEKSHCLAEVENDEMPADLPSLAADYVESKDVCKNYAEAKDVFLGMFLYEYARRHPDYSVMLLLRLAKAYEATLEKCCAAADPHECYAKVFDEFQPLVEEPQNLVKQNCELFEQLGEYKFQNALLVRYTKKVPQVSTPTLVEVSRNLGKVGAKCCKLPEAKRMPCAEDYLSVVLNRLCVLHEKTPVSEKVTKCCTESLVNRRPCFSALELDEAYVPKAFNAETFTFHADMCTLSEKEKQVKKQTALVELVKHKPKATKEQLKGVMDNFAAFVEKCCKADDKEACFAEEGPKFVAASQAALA

[6] = biological target: human serum albumin (HSA) (Homo sapiens, UniProt P02768); assay: biochemical
human serum albumin (HSA), sequence (P02768 25-609): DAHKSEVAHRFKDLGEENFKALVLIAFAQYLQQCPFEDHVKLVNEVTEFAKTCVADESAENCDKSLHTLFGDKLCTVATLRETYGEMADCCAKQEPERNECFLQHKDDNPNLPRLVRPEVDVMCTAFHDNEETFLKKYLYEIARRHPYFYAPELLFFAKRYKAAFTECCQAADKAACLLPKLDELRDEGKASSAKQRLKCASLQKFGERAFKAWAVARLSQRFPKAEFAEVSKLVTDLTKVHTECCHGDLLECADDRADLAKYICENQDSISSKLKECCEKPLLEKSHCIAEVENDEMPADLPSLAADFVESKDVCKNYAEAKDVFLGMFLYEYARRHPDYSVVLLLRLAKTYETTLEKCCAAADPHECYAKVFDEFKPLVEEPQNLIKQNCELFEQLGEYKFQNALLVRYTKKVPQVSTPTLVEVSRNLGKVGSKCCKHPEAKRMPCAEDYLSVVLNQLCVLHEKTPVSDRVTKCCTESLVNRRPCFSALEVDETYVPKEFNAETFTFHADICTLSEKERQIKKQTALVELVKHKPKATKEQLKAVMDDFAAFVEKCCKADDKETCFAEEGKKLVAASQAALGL
Experimental: Biosensor analysis on a Biacore2000 instrument (GE Healthcare) was performed with HSA (Albucult®, Novozymes), CSA (purified in-house from cynomolgus serum), RSA (Sigma-Aldrich, Cat. No. A6272) and MSA (Sigma-Aldrich, Cat. No. A3559) immobilized by amine coupling onto the carboxylated dextran layer of the surfaces of CM-5 chips (research grade; GE Healthcare) according to the manufacturer's recommendations.
ABD variants were used as analytes and were injected in duplicates over the chip at three analyte concentrations (2.5, 10 and 40 nM). The association phase was 5 min followed by a long dissociation phase (60 min) to account at least partially for the slow off-rate of the ABD variants. […] Therefore, all KD's are given as relative KD values only.
The results were analyzed with BiaEvaluation software (GE Healthcare). Curves of the blank surface and buffer injection were subtracted from the curves of the ligand surfaces.
The Biacore 2000 instrument has a technical limitation which hinders measurements of very high affinity. […] After subtraction of reference surface and buffer injection, curves were fitted to a 1:1 (Langmuir) binding model using BIAevaluation software with correction for mass transfer and with RUmax set as a local parameter.

[7] = Circular dichroism analysis, variable temperature measurement; assay type: physicochemical
Experimental: Secondary structure of ABD variants was analyzed by circular dichroism (CD) spectroscopy using a scan from 195-250 nm before and after the variable temperature measurement (see below). Purified albumin binding polypeptide variants were diluted in 1×PBS, to final concentration of 0.5 mg/ml. Circular dichroism (CD) analysis was performed on a Jasco J-810 spectropolarimeter in a cell with an optical path-length of 1 mm. Alpha helical proteins show typical minima at 208 and 222 nm.
Variable temperature measurement was used to determine the melting temperature, Tm. In these measurements, the absorbance was measured at 221 nm from 20° C. to 90° C., with a temperature slope of 5° C./min.
The melting temperatures of the ABD variants were calculated by determining the midpoint of the transtition in the CD vs. temperature plot.
The CD spectra before and after heat treatment were compared in order to detect potential heat denaturation of the proteins. […] FIGS. 2A and 2B show the CD spectra of the new ABD variants and of PEP07843 (SEQ ID NO:27) for comparison.

[8] = pH 7.6, 0.2 U clostripain/mg, 120 min
[9] = pH 7.6, 5 U clostripain/mg, 2 h

| Sequence | resistance to clostripain cleavage, comparison (clostripain [1]) | incubation time at which some cleavage was seen (clostripain [1]; 25° C.) [h] | cleaved after 22 h (clostripain [1]; 25° C.) [%] | metabolised at 22 h (clostripain [2]) [%] | remaining % ABD variant (clostripain [3]; 0.2 U clostripain/mg, 0 min) [%] | remaining % ABD variant (clostripain [3]; 5 U clostripain/mg, 0 h) [%] | remaining at 2 min (clostripain [4]; pH 7.6, 0.2 U clostripain/mg) [%] | remaining at 5 min (clostripain [4]; pH 7.6, 0.2 U clostripain/mg) [%] | remaining at 0.25 h (clostripain [4]; pH 7.6, 0.2 U clostripain/mg) [%] | remaining at 0.5 h (clostripain [4]; pH 7.6, 0.2 U clostripain/mg) [%] | remaining at 2 h (clostripain [4]; [8]) [%] | remaining at 20 h (clostripain [4]; pH 7.6, 0.2 U clostripain/mg) [%] | remaining at 1 h (clostripain [4]; pH 7.6, 5 U clostripain/mg) [%] | remaining at 2 h (clostripain [4]; [9]) [%] | remaining at 4 h (clostripain [4]; pH 7.6, 5 U clostripain/mg) [%] | remaining at 6 h (clostripain [4]; pH 7.6, 5 U clostripain/mg) [%] | remaining at 8 h (clostripain [4]; pH 7.6, 5 U clostripain/mg) [%] | remaining at 22 h (clostripain [4]; pH 7.6, 5 U clostripain/mg) [%] | Kd [5] [pM] | Kd [6] [pM] | other results |
| --- | --- | --- | --- | --- | --- | --- | --- | --- | --- | --- | --- | --- | --- | --- | --- | --- | --- | --- | --- | --- | --- |
| GSSLAEAKEAANAELDSYGVSDFYKSLIDKAKTVEGVEALKDAILAALP [PEP12381] | more resistant to clostripain cleavage as compared to PEP07843 | 4 to 8 | ~100 | ~100 | 100 | 100 | 101 | 100 | 100 | 100 | 99 | 97 | 91 | 79 | 60 | 44 | 31 | 0 | – | – | – |
| GSSLAEAKEAANAELDSYGVSDFYKNLIDKAKTVEGVEALKDAILAALP [PEP12379] | more resistant to clostripain cleavage as compared to PEP07843 | 4 to 8 | ~90 | ~90 | 100 | 100 | 100 | 101 | 101 | 99 | 99 | 96 | 92 | 85 | 71 | 58 | 47 | 4 | – | – | – |
| GSSLAEAKEAANAELDSYGVSDFYKRLIDKAKTVEGVEALKDAILAALP [PEP07843, reference compound] | – | – | – | – | 100 | 100 | 100 | 101 | 100 | 100 | – | 54 | 46 | – | 0 | 0 | 0 | 0 | 9.8 | 6.7 | cleaved after 4-22 h (clostripain [1]; 25° C., 4-22 h): 100%; cleaved after 2 h (clostripain [1]; 25° C., 2 h): ~75%; metabolised (clostripain [2]; 4-22 h, read-out: cleaved after 4-22 h): 100%; metabolised at 2 h (clostripain [2]; 2 h, read-out: cleaved after 2 h): ~75%; remaining % ABD variant (clostripain [3]; 0.2 U clostripain/mg, 120 min): 94%; remaining % ABD variant (clostripain [3]; 5 U clostripain/mg, 2 h): 15% |
| GSSLAEAKEAANAELDSYGVSDFYKKLIDKAKTVEGVEALKDAILAALP [PEP12380] | highest level of resistance to cleavage | 6 to 8 | ~50 | ~50 | 100 | 100 | 100 | 101 | 101 | 101 | 100 | 100 | 96 | 93 | 84 | 77 | 69 | 30 | 11 | 7.5 | thermal stability, comparison of variants [7]: highest thermal stability of the three variants; protease stability, comparison (clostripain [3]; as compared to PEP12379, PEP12381 and PEP07843): superior properties with respect to protease stability; increase of degradation products over time, comparison (clostripain [3]; both low and high clostripain concentrations): lowest increase of degradation products over time |
